US20150306011

Target: histone H3 (acid extracted histones from untreated HeLa cells), P68431

B1: PCAF histone acetylase enzyme (protein)
chain: MLEEEVYSQNSPIWDQDFLSASSRTSQLGIQTVINPPPVAGTISYNSTSSSLEQPNAGSSSPACKASSGLEANPGEKRKMTDSHVLEEAKKPRVMGDIPMELINEVMSTITDPAAMLGPETNFLSAHSARDEAARLEERRGVIEFHVVGNSLNQKPNKKILMWLVGLQNVFSHQLPRMPKEYITRLVFDPKHKTLALIKDGRVIGGICFRMFPSQGFTEIVFCAVTSNEQVKGYGTHLMNHLKEYHIKHDILNFLTYADEYAIGYFKKQGFSKEIKIPKTKYVGYIKDYEGATLMGCELNPRIPYTE
  histone H3 acetylation in PCAF HAT reaction (immunoblot, diacetylated H3 Ac-Lys9+Ac-Lys14): 35-fold increase
